US20170152288A1 (published 2017)

Molecular target: T1, rProtein A Sepharose FF (Staphylococcus aureus, UniProt P38507 37-327, immobilized on Sepharose FF chromatography resin (commercial, GE Healthcare))
T1 construct: all other ligands (L1-L78, A2P, MEP Hypercel) are small molecules; also called rProtA; rProtein A Sepharose 4 FF
Test: batch adsorption in 96-well plates, Langmuir isotherm fit, Bradford assay of supernatant

B1: Bevacizumab (Avastin, F. Hoffmann-La Roche, Switzerland) (antibody, V domains shown)
VH: EVQLVESGGGLVQPGGSLRLSCAASGYTFTNYGMNWVRQAPGKGLEWVGWINTYTGEPTYAADFKRRFTFSLDTSKSTAYLQMNSLRAEDTAVYYCAKYPHYYGSSHWYFDVWGQGTLVTVSS
VL: DIQMTQSPSSLSASVGDRVTITCSASQDISNYLNWYQQKPGKAPKVLIYFTSSLHSGVPSRFSGSGSGTDFTLTISSLQPEDFATYYCQQYSTVPWTFGQGTKVEIK
Kd: 4.7 mg/L
